In patent US20110207670:

Columns and labels:
[1] = system: TM-LE15 (truncated form of TMD2 in which the EGF 6 domain is removed)
[2] = system: TMD2-I424A (TMD2 in which the isoleucine at position 424 is substituted with alanine)
[3] = system: human TMD1 (soluble thrombomodulin containing the amino terminal domain, EGF domain and ST domain, without signal peptide)
[4] = system: human TMD2 (wild-type soluble human thrombomodulin truncated immediately after EGF6, without signal peptide)

Chain of TM-LE15 (truncated form of TMD2 in which the EGF 6 domain is removed) (chain, as listed by the source): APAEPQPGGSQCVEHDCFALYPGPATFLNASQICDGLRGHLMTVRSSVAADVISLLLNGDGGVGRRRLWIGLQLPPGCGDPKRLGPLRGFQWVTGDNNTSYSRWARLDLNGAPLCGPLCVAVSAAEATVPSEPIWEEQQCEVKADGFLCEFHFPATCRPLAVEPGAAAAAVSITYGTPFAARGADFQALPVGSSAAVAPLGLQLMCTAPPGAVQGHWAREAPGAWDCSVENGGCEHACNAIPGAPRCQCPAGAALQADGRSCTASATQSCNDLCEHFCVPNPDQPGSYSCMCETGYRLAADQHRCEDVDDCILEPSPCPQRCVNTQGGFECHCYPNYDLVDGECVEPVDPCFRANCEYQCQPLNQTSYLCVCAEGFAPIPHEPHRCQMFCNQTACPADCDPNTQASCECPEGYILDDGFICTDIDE

With human thrombin the Vmax (mOD405/min) of human protein C activation [1] was 8.3 mOD405/min, the Vmax (mOD405/min) of human protein C activation [2] was 6.9 mOD405/min and the Vmax (mOD405/min) of human protein C activation [3] was 43.3 mOD405/min. For the same substance, the Vmax (mOD405/min) of human protein C activation [4] was 39.1 mOD405/min.
